Measured values as given in paper PMC10689503, “CaMKK2 and CHK1 phosphorylate human STN1 in response to replication stress to protect stalled forks from aberrant resection”.

Tests used:
Conditions in all cases: protein: recombinant;recombinant;recombinant; copies: 1;1;1; label: 5'-Cy3 on Oligo 2; 25 bp duplex; 5' overhang 35 nt on strand 1
[1] = biological target: CTC1;STN1 S96D;TEN1 (human;human;human, UniProt Q2NKJ3;Q9H668;Q86WV5 1-1217;1-368;1-123, |S96D|); assay: EMSA; affinity comparable to WT-CST; EMSA: 60 nM DNA, 35 mM Tris-HCl pH 7.5, 1 mM DTT, 100 ng/uL BSA, 50 mM KCl, 37 C, 5 min; 0.8% agarose, 1x TBE, 4 C
CTC1;STN1 S96D;TEN1, sequence (Q2NKJ3 whole entry, chain 1 of 3): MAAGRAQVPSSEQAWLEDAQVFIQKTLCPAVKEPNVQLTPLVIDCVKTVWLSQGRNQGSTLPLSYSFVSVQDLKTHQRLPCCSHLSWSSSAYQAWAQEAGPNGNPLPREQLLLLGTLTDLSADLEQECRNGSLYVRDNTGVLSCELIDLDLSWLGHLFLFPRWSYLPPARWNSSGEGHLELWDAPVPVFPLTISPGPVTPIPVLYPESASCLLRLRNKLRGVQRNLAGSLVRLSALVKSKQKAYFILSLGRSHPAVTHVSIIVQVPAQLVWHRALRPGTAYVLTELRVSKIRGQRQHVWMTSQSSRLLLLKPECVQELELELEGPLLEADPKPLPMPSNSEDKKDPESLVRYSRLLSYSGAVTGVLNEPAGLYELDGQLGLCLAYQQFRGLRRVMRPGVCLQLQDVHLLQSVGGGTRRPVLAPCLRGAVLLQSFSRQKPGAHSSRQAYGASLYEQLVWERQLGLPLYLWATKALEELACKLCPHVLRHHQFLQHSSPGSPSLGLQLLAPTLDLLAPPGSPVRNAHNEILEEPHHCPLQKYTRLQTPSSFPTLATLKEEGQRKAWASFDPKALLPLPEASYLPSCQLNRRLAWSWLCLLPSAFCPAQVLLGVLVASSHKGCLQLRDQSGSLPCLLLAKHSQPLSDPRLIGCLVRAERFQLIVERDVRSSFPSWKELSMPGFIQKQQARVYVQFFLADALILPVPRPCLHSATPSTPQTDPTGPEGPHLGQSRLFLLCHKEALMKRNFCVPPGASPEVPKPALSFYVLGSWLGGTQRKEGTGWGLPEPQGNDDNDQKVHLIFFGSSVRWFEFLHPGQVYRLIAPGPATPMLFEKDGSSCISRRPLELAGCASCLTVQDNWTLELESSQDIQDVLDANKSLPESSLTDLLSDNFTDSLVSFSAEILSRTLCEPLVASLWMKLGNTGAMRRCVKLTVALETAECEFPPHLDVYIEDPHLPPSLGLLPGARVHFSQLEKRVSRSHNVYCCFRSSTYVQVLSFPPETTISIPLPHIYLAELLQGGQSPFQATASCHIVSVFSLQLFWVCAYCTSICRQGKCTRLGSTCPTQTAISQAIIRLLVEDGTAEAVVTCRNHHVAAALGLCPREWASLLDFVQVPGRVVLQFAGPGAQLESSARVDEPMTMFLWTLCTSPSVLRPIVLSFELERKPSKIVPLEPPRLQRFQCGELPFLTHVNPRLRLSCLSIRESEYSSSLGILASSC
CTC1;STN1 S96D;TEN1, sequence (Q9H668 whole entry S96D, chain 2 of 3): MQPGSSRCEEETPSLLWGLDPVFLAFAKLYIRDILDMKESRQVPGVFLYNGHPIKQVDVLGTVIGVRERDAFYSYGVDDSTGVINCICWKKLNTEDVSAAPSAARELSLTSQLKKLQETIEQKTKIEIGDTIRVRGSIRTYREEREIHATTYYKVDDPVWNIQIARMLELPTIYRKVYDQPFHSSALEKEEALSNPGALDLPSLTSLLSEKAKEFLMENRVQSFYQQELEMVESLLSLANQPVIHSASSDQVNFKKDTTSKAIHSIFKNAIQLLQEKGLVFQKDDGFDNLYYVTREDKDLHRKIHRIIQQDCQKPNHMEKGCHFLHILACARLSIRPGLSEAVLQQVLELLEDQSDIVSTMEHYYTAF
CTC1;STN1 S96D;TEN1, sequence (Q86WV5 whole entry, chain 3 of 3): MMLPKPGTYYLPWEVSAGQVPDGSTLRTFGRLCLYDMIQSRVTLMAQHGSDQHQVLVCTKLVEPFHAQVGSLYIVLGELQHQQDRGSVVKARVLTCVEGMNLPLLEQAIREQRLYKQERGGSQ

[2] = biological target: CTC1;STN1 S96A;TEN1 (human;human;human, UniProt Q2NKJ3;Q9H668;Q86WV5 1-1217;1-368;1-123, |S96A|); assay: as above
CTC1;STN1 S96A;TEN1, sequence (Q2NKJ3 whole entry, chain 1 of 3): as the sequence (Q2NKJ3 whole entry, chain 1 of 3) above
CTC1;STN1 S96A;TEN1, sequence (Q9H668 whole entry S96A, chain 2 of 3): as the sequence (Q9H668 whole entry S96D, chain 2 of 3) above, with D96A counted along it
CTC1;STN1 S96A;TEN1, sequence (Q86WV5 whole entry, chain 3 of 3): as the sequence (Q86WV5 whole entry, chain 3 of 3) above

[3] = biological target: CTC1;STN1 WT;TEN1 (human;human;human, UniProt Q2NKJ3;Q9H668;Q86WV5 1-1217;1-368;1-123, ||); assay: EMSA; EMSA: 60 nM DNA, 35 mM Tris-HCl pH 7.5, 1 mM DTT, 100 ng/uL BSA, 50 mM KCl, 37 C, 5 min; 0.8% agarose, 1x TBE, 4 C
CTC1;STN1 WT;TEN1, sequence (Q2NKJ3 whole entry, chain 1 of 3): as the sequence (Q2NKJ3 whole entry, chain 1 of 3) above
CTC1;STN1 WT;TEN1, sequence (Q9H668 whole entry, chain 2 of 3): as the sequence (Q9H668 whole entry S96D, chain 2 of 3) above, with D96S counted along it
CTC1;STN1 WT;TEN1, sequence (Q86WV5 whole entry, chain 3 of 3): as the sequence (Q86WV5 whole entry, chain 3 of 3) above

Measured: binding result

B1: Cy3-labeled 5' overhang DNA (Oligo 1 + Oligo 2) (mixed)
DNA 1: ACGCTGCCGAATTCTACCAGTGCCTTGCTAGGACATCTTTGCCCACCTGCAGGTTCACCC
DNA 2: GGGTGAACCTGCAGGTGGGCAAAGA
modifications: Oligo 1: phosphorothioate bonds at both ends (after nt 1-5 and as printed around the last 4 nt)
binds: all assays above
